Laboratory results reported in paper PMC6803667 (Scientific Reports, 2019).
Several values for one entry are separate records, joined by “and”; a condition that tells them apart may be missing. Identical values can stand only once.

B1: Rabies Late domain peptide (peptide)
peptide: DLWLPPPEYVPL
B2: HTLV1 Late domain peptide (peptide)
peptide: SDPQIPPPYVEP
B3: Marburg Late domain peptide (peptide)
peptide: MQYLNPPPYADH
B4: Ebola Late domain peptide (peptide)
peptide: ILPTAPPEYMEA
B5: p53bp2 human peptide (peptide)
peptide: Ac-EYPPYPPPPYPSG-NH2
B6: HTLV1ter Late domain peptide (peptide)
peptide: Ac-PPPYVEPTAP-NH2
notes: source: synthetic peptide, bought: SynBioSci Corporation

Legend:
Conditions in all cases: both partners purified
[1] = biological target: T1, first WW domain of human YAP2 (YAP-WW1) (human, UniProt P46937-2 165-209); experiment: ITC
T1 construct: also called hYAP-WW1; not shown: GST, N-terminal, cleaved; His tag, N-terminal, cleaved

[2] = biological target: T2, third WW domain of human NEDD4 (hNEDD4-WW3), unlabelled (human, UniProt P46934 834-878); experiment: ITC
T2 construct: not shown: GST, N-terminal, cleaved; His tag, N-terminal, cleaved

[3] = biological target: T3, second WW domain of human YAP2 (YAP-WW2) (human, UniProt P46937-2 228-271); experiment: other fluorescence titration; tryptophan fluorescence of the WW domain (20 uM), excitation 298 nm, centre of spectral mass against peptide concentration, one to one model; 20 mM sodium phosphate pH 7.0, 25 °C
T3 construct: also called hYAP-WW2; not shown: GST, N-terminal, cleaved; His tag, N-terminal, cleaved

[4] = biological target: T1, first WW domain of human YAP2 (YAP-WW1); experiment: as above
[5] = biological target: T3, second WW domain of human YAP2 (YAP-WW2); experiment: other fluorescence titration
[6] = biological target: T1, first WW domain of human YAP2 (YAP-WW1); experiment: other fluorescence titration
[7] = biological target: T3, second WW domain of human YAP2 (YAP-WW2); experiment: ITC

T1 sequence (P46937 165-209): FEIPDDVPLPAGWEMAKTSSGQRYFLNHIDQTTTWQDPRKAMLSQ
T3 sequence (P46937 228-271): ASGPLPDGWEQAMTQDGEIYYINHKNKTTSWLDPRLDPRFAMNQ
T2 sequence (P46934 834-878): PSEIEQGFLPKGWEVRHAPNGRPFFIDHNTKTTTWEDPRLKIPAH

Binder	Kd [1]	dH [1]	Kd [2] [µM]	dH [2] [kJ/mol]	Kd [3] [µM]	Kd [4] [µM]	Kd [5] [µM]	Kd [6] [µM]	Kd [7] [µM]	dH [7] [kJ/mol]
B1	181 ± 5 µM	-63.7 ± 0.9 kJ/mol	51 ± 1	-65.8 ± 0.8						
B2			61 ± 1	-68.2 ± 0.6	260 ± 40	308 ± 4				
B3			51 ± 1	-73.2 ± 0.7			17 ± 1	67 ± 4		
B4			147 ± 4	-50.7 ± 0.7			560 ± 30	750 ± 10		
B5	3 µM and 1.1 µM and 1.8 µM	-61.1 kJ/mol and -66.4 kJ/mol and -54.8 kJ/mol							12 ± 0.6	-57 ± 1
B6			178 ± 3	-74 ± 0.8						
